According to article doi:10.1101/144360 (bioRxiv, 2017):
AGT = not defined here

Target: T1, 6xHIS-SH3_(Boi1) (S. cerevisiae, UniProt P38041 13-77)
T1 sequence: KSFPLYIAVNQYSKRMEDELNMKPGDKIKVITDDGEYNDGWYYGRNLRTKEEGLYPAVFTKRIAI
Assay: SPR

**Q.** How did the Kd turn out when 6xHis-SVSSKGPSNSLNLSTADLSLN-{AGT} (reading uncertain; also: AGT tag covalently labeled with SNAP-Biotin) [6xHis-Exo84_(121-141)-AGT] was run?
**A.** Its Kd is ~1000 nM.
